Patent US20120141482A1
Where “and” joins values, the source holds several entries; their conditions need not be identical. Equal entries are not always repeated.

Tests used:
[1] = molecular target: TCR of 5KC, a moth cytochrome C (MCC)-specific, I-E^k-restricted T cell hybridoma; assay: cell-based or functional assay
[2] = molecular target: TCR of 5KC, a moth cytochrome C (MCC)-specific, I-E^k-restricted T cell hybridoma; assay: flow cytometry on 5KC hybridoma cells
[3] = molecular target: TCR of 5KC, a moth cytochrome C (MCC)-specific, I-E^k-restricted T cell hybridoma; assay: flow cytometry on 5KC hybridoma cells; reference cells without primary reagent
[4] = molecular target: SIY/H-2 K^b complex (mouse) (UniProt P01901); assay: cell-based or functional assay
SIY/H-2 K^b complex (mouse), sequence (P01901 22-369, one chain of several): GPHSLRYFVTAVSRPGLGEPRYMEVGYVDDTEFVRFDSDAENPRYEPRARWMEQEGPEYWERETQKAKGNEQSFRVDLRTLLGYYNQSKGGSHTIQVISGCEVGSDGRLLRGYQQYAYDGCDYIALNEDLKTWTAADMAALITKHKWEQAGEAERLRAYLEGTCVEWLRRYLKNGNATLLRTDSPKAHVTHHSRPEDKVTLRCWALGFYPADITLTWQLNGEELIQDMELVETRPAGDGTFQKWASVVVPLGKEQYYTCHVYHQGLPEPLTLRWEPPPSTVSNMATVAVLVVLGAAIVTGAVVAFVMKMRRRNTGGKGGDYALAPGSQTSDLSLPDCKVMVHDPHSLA

SIY/H-2 K^bm3 complex [5] = assay: cell-based or functional assay
dEV-8/H-2 K^bm3 complex = assay: cell-based or functional assay
[6] = molecular target: p2Ca/H-2 L^d complex (mouse) (UniProt P01897); assay: cell-based or functional assay
p2Ca/H-2 L^d complex (mouse), sequence (P01897 25-309, one chain of several): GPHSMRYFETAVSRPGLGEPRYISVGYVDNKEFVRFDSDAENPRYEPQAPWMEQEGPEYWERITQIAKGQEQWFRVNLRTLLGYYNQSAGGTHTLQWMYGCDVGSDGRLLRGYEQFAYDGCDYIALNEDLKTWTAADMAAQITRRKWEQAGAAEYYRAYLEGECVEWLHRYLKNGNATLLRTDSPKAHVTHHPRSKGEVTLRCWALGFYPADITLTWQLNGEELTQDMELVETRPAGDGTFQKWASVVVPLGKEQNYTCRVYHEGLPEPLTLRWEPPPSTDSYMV

[7] = molecular target: p2Ca/H-2 L^d complex (mouse) (UniProt P01897); assay: flow cytometry competition with FITC-30.5.7 Fab on peptide-loaded RMA-S L^d cells
[8] = molecular target: QL9/H-2 L^d complex (mouse) (UniProt P01897); assay: flow cytometry, serial dilutions on QL9-loaded RMA-S L^d cells, detected with H57-FITC
QL9/H-2 L^d complex (mouse), sequence (P01897 25-309, one chain of several): as above

[9] = molecular target: p2Ca/H-2 L^d complex (mouse) (UniProt P01897); assay: flow cytometry, serial dilutions on p2Ca-loaded RMA-S L^d cells, detected with H57-FITC
[10] = molecular target: p2Ca/H-2 L^d complex (mouse) (UniProt P01897); assay: flow cytometry competition with constant FITC-30.5.7 Fab on peptide-loaded RMA-S L^d cells
[11] = molecular target: SIY/H-2 K^b complex (mouse) (UniProt P01901); assay: flow cytometry on peptide-loaded T2 K^b cells
SIY/H-2 K^bm3 complex [12] = assay: flow cytometry on peptide-loaded T2 K^bm3 cells
[13] = molecular target: QL9/H-2 L^d complex (mouse) (UniProt P01897); assay: direct flow cytometry on peptide-loaded L^d cells
[14] = molecular target: SL9/H-2 L^d complex (mouse) (UniProt P01897); assay: direct flow cytometry on peptide-loaded RMA-S L^d cells
SL9/H-2 L^d complex (mouse), sequence (P01897 25-309, one chain of several): as above

[15] = molecular target: pVSV/H-2 K^b complex (mouse) (UniProt P01901); assay: flow cytometry on T2 K^b cells, control peptide (background)
pVSV/H-2 K^b complex (mouse), sequence (P01901 22-369, one chain of several): as the sequence (P01901 22-369, one chain of several) above

[16] = molecular target: unloaded H-2 L^d molecules on RMA-S L^d cells (mouse) (UniProt P01897); assay: direct flow cytometry on RMA-S L^d cells, unloaded (background)
unloaded H-2 L^d molecules on RMA-S L^d cells (mouse), sequence (P01897 25-309): as the sequence (P01897 25-309, one chain of several) above

[17] = molecular target: H-2 L^d loaded with an irrelevant H-2 L^d binding peptide (mouse) (UniProt P01897); assay: direct flow cytometry on RMA-S L^d cells, irrelevant peptide (background)
H-2 L^d loaded with an irrelevant H-2 L^d binding peptide (mouse), sequence (P01897 25-309): as the sequence (P01897 25-309, one chain of several) above

[18] = molecular target: p2Ca/H-2 L^d complex (mouse) (UniProt P01897); assay: flow cytometry on L^d cells loaded with graded peptide concentrations; highest value
[19] = molecular target: serologically reactive H-2 L^d on RENCA cells (mouse) (UniProt P01897); assay: flow cytometry on unstimulated RENCA cells
serologically reactive H-2 L^d on RENCA cells (mouse), sequence (P01897 25-362): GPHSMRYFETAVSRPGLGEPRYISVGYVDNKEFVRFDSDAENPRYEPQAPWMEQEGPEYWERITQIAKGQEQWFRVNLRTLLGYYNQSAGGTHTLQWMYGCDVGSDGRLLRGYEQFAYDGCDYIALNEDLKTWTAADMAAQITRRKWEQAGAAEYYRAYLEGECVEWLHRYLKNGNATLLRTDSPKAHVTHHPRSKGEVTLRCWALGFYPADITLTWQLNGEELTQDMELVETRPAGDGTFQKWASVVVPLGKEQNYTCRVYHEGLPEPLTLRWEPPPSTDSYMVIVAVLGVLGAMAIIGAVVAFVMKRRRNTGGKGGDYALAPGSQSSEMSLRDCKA

[20] = molecular target: unloaded H-2 L^d molecules on RMA-S L^d cells (mouse) (UniProt P01897); assay: direct flow cytometry on RMA-S L^d cells without peptide
[21] = molecular target: serologically reactive H-2 L^d on RENCA cells (mouse) (UniProt P01897); assay: flow cytometry on RENCA cells stimulated with 5-50 units/ml γ-IFN
[22] = molecular target: QL9/H-2 L^d complex (mouse) (UniProt P01897); assay: flow cytometry on L^d cells loaded with graded peptide concentrations; highest value

2C TCR on 2C CTL, sequence (A2KF29 whole entry): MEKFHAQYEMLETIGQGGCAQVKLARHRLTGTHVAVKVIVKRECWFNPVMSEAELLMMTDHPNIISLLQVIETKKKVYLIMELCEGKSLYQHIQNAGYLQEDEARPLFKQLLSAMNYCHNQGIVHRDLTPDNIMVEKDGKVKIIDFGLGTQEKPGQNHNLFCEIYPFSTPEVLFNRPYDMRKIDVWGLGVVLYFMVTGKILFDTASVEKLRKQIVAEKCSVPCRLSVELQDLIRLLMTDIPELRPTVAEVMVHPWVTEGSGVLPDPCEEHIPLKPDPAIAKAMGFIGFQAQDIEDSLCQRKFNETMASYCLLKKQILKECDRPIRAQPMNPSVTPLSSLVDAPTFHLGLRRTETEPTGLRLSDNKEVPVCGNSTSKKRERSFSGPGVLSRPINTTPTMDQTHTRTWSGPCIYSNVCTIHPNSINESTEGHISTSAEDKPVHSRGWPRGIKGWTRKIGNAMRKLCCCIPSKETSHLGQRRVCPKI

In the case of “soluble divalent ^MCCI-E^k/IgG (peptide-MHC)”, the IL-2 production, fold stimulation over anti-CD3 mAb at 92 ng/ml [1] is reported as 10 fold, the lowest concentration at which specific staining was seen [2] is reported as 5 nM and the mean channel fluorescence [2] is reported as 300 MCF. The fold increase of mean channel fluorescence [3] was 15 fold.

In the case of 2C TCR on 2C CTL (from UniProt A2KF29), the 2C CTL mediated lysis, LD50 (peptide concentration) [4] is reported as 10 ng/mL, the 2C CTL mediated lysis, LD50 (peptide concentration) (SIY/H-2 K^bm3 complex [5]) is reported as 100 ng/mL and the 2C CTL mediated lysis, LD50 (peptide concentration) (dEV-8/H-2 K^bm3 complex) is reported as 0.5 ng/mL and 1 ng/mL. It also gave a 2C CTL mediated lysis of p2Ca-loaded T2 L^d cells, LD50 (peptide concentration) [6] of 0.5 ng/mL.

Substance “soluble monovalent 2C TCR (from UniProt A2KF29)” has a Kd [7] of over 2 µM, a concentration required to detect binding [8] of over 100 nM and a concentration required to detect binding [9] of over 3000 nM. The Kapp [10] was over 2000 nM.

Substance “soluble divalent 2C TCR/Ig (from UniProt A2KF29)” has an MCF [11] of 276 MCF, an MCF (SIY/H-2 K^bm3 complex [12]) of 36 MCF and an MCF [13] of 3000 MCF. The MCF [14] was 100 MCF, the MCF [15] was 14 MCF and the MCF [16] was 10 MCF. For the same substance, the MCF [17] was 10 MCF, the MCF [18] was 600 MCF and the lowest concentration at which binding was detected [8] was under 1 nM. For the same substance, the concentration required to detect binding [9] was 3 nM and the Kapp [10] was 108 nM.

In the case of mAb 30.5.7 (antibody), the MCF [19] is reported as 500 MCF, the fold increase of mean channel fluorescence, cells at 27° C. against 37° C. [20] is reported as 5 fold and the MCF [21] is reported as 2670 to 3040 MCF. The MCF [22] was 3000 MCF and the MCF [18] was 3000 MCF.
